This is an account of results in paper PMC10290953, “A novel ELP1 mutation impairs the function of the Elongator complex and causes a severe neurodevelopmental phenotype” (Journal of Human Genetics, 2023).

As usually defined, the Kd is the equilibrium constant for the complex coming apart.

Data set [1] relates to ELP1 (wild type);ELP2;ELP3 (Homo sapiens;Homo sapiens;Homo sapiens). The data set is described as follows: MST. Conditions: none (in vitro transcribed); MST: 14 nM Cy5-tRNA, ELP123 from 1.5 uM in serial dilution, 20 mM HEPES pH 7.5, 100 mM NaCl, 5 mM DTT, 0.05% Tween 20; incubated 30 min at 4 C, measured at ….
In data set [2] the test system is ELP1 K815T;ELP2;ELP3 (Homo sapiens;Homo sapiens;Homo sapiens). The experiment in a line: MST. Particulars: curve did not reach plateau; authors state actual affinity is likely lower; none (in vitro transcribed); MST: 14 nM Cy5-tRNA, ELP123 from 1.5 uM in serial dilution, 20 mM HEPES pH 7.5, 100 mM NaCl, 5 mM DTT, 0.05% Tween 20; incubated 30 min at 4 C, measured at ….

Data set [3] deals with the molecule itself. The data set is described as follows: SEC; purified ELP1_(715-1332) proteins on a S200 10/300 increase gel filtration column with calibration standards; fractions on 12% SDS-PAGE, Coomassie. (In general: Size exclusion chromatography separates by hydrodynamic size, large species first.)

Turning to tRNAGlnUUG, the Kd is 50 nM in data set [1] and 150 nM in data set [2].

B1: human ELP1 N-terminal truncation, residues 715-1332 (ELP1_(715-1332)) (domain or fragment, UniProt O95163 715-1332, looked up)
chain: NLEVVHHRALVLAQIRKWLDKLMFKEAFECMRKLRINLNLIYDHNPKVFLGNVETFIKQIDSVNHINLFFTELKEEDVTKTMYPAPVTSSVYLSRDPDGNKIDLVCDAMRAVMESINPHKYCLSILTSHVKKTTPELEIVLQKVHELQGNAPSDPDAVSAEEALKYLLHLVDVNELYDHSLGTYDFDLVLMVAEKSQKDPKEYLPFLNTLKKMETNYQRFTIDKYLKRYEKAIGHLSKCGPEYFPECLNLIKDKNLYNEALKLYSPSSQQYQDISIAYGEHLMQEHMYEPAGLMFARCGAHEKALSAFLTCGNWKQALCVAAQLNFTKDQLVGLGRTLAGKLVEQRKHIDAAMVLEECAQDYEEAVLLLLEGAAWEEALRLVYKYNRLDIIETNVKPSILEAQKNYMAFLDSQTATFSRHKKRLLVVRELKEQAQQAGLDDEVPHGQESDLFSETSSVVSGSEMSGKYSHSNSRISARSSKNRRKAERKKHSLKEGSPLEDLALLEALSEVVQNTENLKDEVYHILKVLFLFEFDEQGRELQKAFEDTLQLMERSLPEIWTLTYQQNSATPVLGPNSTANSIMASYQQQKTSVPVLDAELFIPPKINRRTQWKLSLLD
notes: ELP1, Homo sapiens, UniProt O95163, amino acids 715 to 1332; cloned with NcoI and XhoI into pETM11; also called ELP1CT; ELP1 C-terminal construct; source: E. coli BL21 pRARE, purified (NiNTA, S200 gel filtration)
Regarding B1, the binding result in data set [3] is given as “binds”.

B2: human ELP1_(715-1332)K815T (domain or fragment, UniProt O95163 715-1332, looked up)
chain: NLEVVHHRALVLAQIRKWLDKLMFKEAFECMRKLRINLNLIYDHNPKVFLGNVETFIKQIDSVNHINLFFTELKEEDVTKTMYPAPVTSSVYLSRDPDGNTIDLVCDAMRAVMESINPHKYCLSILTSHVKKTTPELEIVLQKVHELQGNAPSDPDAVSAEEALKYLLHLVDVNELYDHSLGTYDFDLVLMVAEKSQKDPKEYLPFLNTLKKMETNYQRFTIDKYLKRYEKAIGHLSKCGPEYFPECLNLIKDKNLYNEALKLYSPSSQQYQDISIAYGEHLMQEHMYEPAGLMFARCGAHEKALSAFLTCGNWKQALCVAAQLNFTKDQLVGLGRTLAGKLVEQRKHIDAAMVLEECAQDYEEAVLLLLEGAAWEEALRLVYKYNRLDIIETNVKPSILEAQKNYMAFLDSQTATFSRHKKRLLVVRELKEQAQQAGLDDEVPHGQESDLFSETSSVVSGSEMSGKYSHSNSRISARSSKNRRKAERKKHSLKEGSPLEDLALLEALSEVVQNTENLKDEVYHILKVLFLFEFDEQGRELQKAFEDTLQLMERSLPEIWTLTYQQNSATPVLGPNSTANSIMASYQQQKTSVPVLDAELFIPPKINRRTQWKLSLLD
notes: ELP1, Homo sapiens, UniProt O95163, amino acids 715 to 1332, with the patient variant p.Lys815Thr; Patient-derived variant (c.2444A>C; p.Lys815Thr); PDB 5CQR is the wild-type parent; also called ELP1K815T C-terminal construct; source: E. coli BL21 pRARE, purified (NiNTA, S200 gel filtration)
Consider B2, for which, in data set [3], the binding result is listed as “binds”.
